This note sets out measurements from US20210002624.

In this data set the target is Factor X, P00742.
Chain of Factor X, P00742 (P00742 whole entry, looked up): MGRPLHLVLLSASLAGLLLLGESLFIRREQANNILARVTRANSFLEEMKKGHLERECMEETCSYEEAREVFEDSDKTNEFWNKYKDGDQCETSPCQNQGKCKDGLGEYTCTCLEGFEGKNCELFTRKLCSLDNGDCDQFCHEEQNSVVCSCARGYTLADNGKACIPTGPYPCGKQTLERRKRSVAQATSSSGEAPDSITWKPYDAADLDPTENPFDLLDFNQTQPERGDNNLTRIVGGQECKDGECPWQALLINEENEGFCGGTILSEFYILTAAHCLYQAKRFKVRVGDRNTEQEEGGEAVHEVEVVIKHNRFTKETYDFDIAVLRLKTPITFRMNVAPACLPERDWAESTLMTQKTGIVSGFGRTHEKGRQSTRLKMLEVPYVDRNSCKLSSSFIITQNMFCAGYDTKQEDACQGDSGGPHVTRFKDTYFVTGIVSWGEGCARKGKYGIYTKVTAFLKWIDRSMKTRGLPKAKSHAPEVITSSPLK

B1: Desialylated wild-type Factor VII (dWT VIIa) (protein)
chain 1: ANAFLEELRPGSLERECKEEQCSFEEAREIFKDAERTKLFWISYSDGDQCASSPCQNGGSCKDQLQSYICFCLPAFEGRNCETHKDDQLICVNENGGCEQYCSDHTGTKRSCRCHEGYSLLADGVSCTPTVEYPCGKIPILEKRNASKPQGR
chain 2: IVGGKVCPKGECPWQVLLLVNGAQLCGGTLINTIWVVSAAHCFDKIKNWRNLIAVLGEHDLSEHDGDEQSRRVAQVIIPSTYVPGTTNHDIALLRLHQPVVLTDHVVPLCLPERTFSERTLAFVRFSLVSGWGQLLDRGATALELMVLNVPRLMTQDCLQQSRKVGDSPNITEYMFCAGYSDGSKDSCKGDSGGPHATHYRGTWYLTGIVSWGQGCATVGHFGVYTRVSQYIEWLQKLMRSEPRPGVLLRAPFP
B1: the “activation of Factor X (Michaelis Menten kinetics; Factor X titrated in the presence of sTF-Factor VII complexes, 0.5 nM Factor VII, 125 nM sTF), relative to wild-type Factor VII (F7)” value is “approximately 2-fold”.
